Data: patent publication US20200199241A1 (Chugai, published 2020)

How the values were obtained:
FcγRIIb [1] = target: T1, FcγRIIb (human, UniProt P31994 43-217, limits assumed); test: SPR (Biacore); KD for FcγRIIaR divided by KD for FcγRIIb of the same antibody; column head in Table 52-1
T1 construct: also called FcγIIB; CD32
T1 sequence: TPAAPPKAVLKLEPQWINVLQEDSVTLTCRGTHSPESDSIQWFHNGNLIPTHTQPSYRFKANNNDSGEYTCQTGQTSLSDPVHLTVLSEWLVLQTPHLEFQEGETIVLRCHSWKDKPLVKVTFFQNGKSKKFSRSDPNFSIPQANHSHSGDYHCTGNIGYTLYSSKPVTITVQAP
Excerpt: (§1) Furthermore, KD(IIaR)/KD(IIb) and KD(IIaH)/KD(IIb) in the table respectively represent the value obtained by dividing the KD value of each variant for FcγRIIaR by the KD value of each variant for FcγRIIb, and the value obtained by dividing the KD value of each variant for FcγRIIaH by the KD value of each variant for FcγRIIb. KD(IIb) of the parent polypeptide/KD(IIb) of the altered polypeptide refers to the value obtained by dividing the KD value of the parent polypeptide for FcγRIIb by the KD value of each variant for FcγRIIb.

FcγRIIb [2] = target: T1, FcγRIIb; test: SPR (Biacore); KD for FcγRIIaH divided by KD for FcγRIIb of the same antibody; column head in Table 52-1
Excerpt: as §1

FcγRIa = target: T2, FcγRIa (human, UniProt P12314 16-292, limits assumed); test: SPR (Biacore), method of Example 14
T2 construct: also called CD64
T2 sequence (P12314 16-292 limits assumed): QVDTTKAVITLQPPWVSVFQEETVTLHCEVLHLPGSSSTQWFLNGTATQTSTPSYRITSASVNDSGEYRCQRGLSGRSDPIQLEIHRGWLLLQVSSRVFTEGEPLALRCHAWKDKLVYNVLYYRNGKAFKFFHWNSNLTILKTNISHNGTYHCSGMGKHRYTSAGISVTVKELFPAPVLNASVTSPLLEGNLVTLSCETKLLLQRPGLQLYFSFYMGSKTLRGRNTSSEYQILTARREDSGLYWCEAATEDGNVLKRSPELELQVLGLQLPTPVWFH

FcγRIIa type R = target: T3, FcγRIIa type R (human, UniProt P12318 36-217); test: SPR (Biacore), method of Example 14
T3 construct: also called FcγRIIaR; FcγRIIa(R)
T3 chain: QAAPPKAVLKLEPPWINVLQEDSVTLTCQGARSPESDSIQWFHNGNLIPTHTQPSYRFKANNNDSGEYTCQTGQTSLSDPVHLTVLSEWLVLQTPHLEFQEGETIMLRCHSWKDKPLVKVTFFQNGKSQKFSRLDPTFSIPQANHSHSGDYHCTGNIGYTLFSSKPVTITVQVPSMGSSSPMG

FcγRIIa type H = target: T4, FcγRIIa type H (human, UniProt P12318 36-217); test: SPR (Biacore), method of Example 14
T4 construct: also called FcγRIIaH; FcγRIIa(H)
T4 sequence: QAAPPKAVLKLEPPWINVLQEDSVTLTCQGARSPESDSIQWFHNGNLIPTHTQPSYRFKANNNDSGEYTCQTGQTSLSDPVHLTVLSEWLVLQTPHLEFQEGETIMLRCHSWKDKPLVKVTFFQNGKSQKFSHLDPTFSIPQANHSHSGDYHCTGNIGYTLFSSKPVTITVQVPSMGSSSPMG

FcγRIIb [3] = target: T1, FcγRIIb; test: SPR (Biacore), method of Example 14
FcγRIIIa type V = target: T5, FcγRIIIa type V (human, UniProt P08637 17-208, limits assumed); test: SPR (Biacore), method of Example 14
T5 construct: also called FcγRIIIaV; FcγRIIIa(V)
T5 sequence (P08637 17-208 F176V limits assumed): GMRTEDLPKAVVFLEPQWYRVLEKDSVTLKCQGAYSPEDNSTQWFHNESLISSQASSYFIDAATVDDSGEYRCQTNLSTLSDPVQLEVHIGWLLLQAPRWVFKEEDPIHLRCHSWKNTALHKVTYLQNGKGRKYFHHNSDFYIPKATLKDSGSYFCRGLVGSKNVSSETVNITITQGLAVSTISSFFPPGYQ

FcγRIIb [4] = target: T1, FcγRIIb; test: ratio of SPR KD values, parent IL6R-B3/IL6R-L
Excerpt: as §1

B1: IL6R-BP183/IL6R-L (antibody, human IgG1)
heavy: QVQLQESGPGLVKPSETLSLTCAVSGHSISHDHAWSWVRQPPGEGLEWIGFISYSGITNYNPSLQGRVTISRDNSKNTLYLQMNSLRAEDTAVYYCARSLARTTAMDYWGEGTLVTVSSASTKGPSVFPLAPSSKSTSGGTAALGCLVKDYFPEPVTVSWNSGALTSGVHTFPAVLQSSGLYSLSSVVTVPSSSLGTQTYICNVNHKPSNTKVDKKVEPKSCDKTHTCPPCPAPDYLGGDSVFLFPPKPKDTLMISRTPEVTCVVVDVSHEDGEVKFNWYVDGVEVHNAKTKPREEQYNSTYRVVSVLTVLHQDWLNGKEYKCKVSNAALPKPIEKTISKAKGQPREPQVYTLPPSRDELTKNQVSLTCLVKGFYPSDIAVEWESNGQPENNYKTTPPVLDSDGSFFLYSKLTVDKSRWQQGNVFSCSVMHEALHNHYTQESLSLSP
light: DIQMTQSPSSLSASVGDRVTITCRASQDISSYLNWYQQKPGKAPKLLIYYTSRLHSGVPSRFSGSGSGTDFTFTISSLQPEDIATYYCQQGNTLPYTFGQGTKVEIK
notes: Anti-IL-6R human IgG1 variant; copies: 2 + 2
- KD(IIaR)/KD(IIb) (FcγRIIb [1]): 10.7
- KD(IIaH)/KD(IIb) (FcγRIIb [2]): 62.5
- Kd (FcγRIa): 0.017 µM
- Kd (FcγRIIa type R): 2.6 µM
- Kd (FcγRIIa type H): 15 µM
- Kd (FcγRIIb [3]): 0.24 µM
- Kd (FcγRIIIa type V): 56 µM
- KD(IIb) of the parent polypeptide/KD(IIb) of altered polypeptide (FcγRIIb [4]): 12.9 fold

B2: IL6R-BP184/IL6R-L (antibody, human IgG1)
heavy: QVQLQESGPGLVKPSETLSLTCAVSGHSISHDHAWSWVRQPPGEGLEWIGFISYSGITNYNPSLQGRVTISRDNSKNTLYLQMNSLRAEDTAVYYCARSLARTTAMDYWGEGTLVTVSSASTKGPSVFPLAPSSKSTSGGTAALGCLVKDYFPEPVTVSWNSGALTSGVHTFPAVLQSSGLYSLSSVVTVPSSSLGTQTYICNVNHKPSNTKVDKKVEPKSCDKTHTCPPCPAPDLLGGDSVFLFPPKPKDTLMISRTPEVTCVVVDVSHEDGEVKFNWYVDGVEVHNAKTKPREEQYNSTYRVVSVLTVLHQDWLNGKEYKCKVSNKALPKPIEKTISKAKGQPREPQVYTLPPSRDELTKNQVSLTCLVKGFYPSDIAVEWESNGQPENNYKTTPPVLDSDGSFFLYSKLTVDKSRWQQGNVFSCSVMHEALHNHYTQESLSLSP
light: DIQMTQSPSSLSASVGDRVTITCRASQDISSYLNWYQQKPGKAPKLLIYYTSRLHSGVPSRFSGSGSGTDFTFTISSLQPEDIATYYCQQGNTLPYTFGQGTKVEIK
notes: as for B1
- KD(IIaR)/KD(IIb) (FcγRIIb [1]): 18.2
- KD(IIaH)/KD(IIb) (FcγRIIb [2]): 238
- Kd (FcγRIa): 0.011 µM
- Kd (FcγRIIa type R): 2.3 µM
- Kd (FcγRIIa type H): 30 µM
- Kd (FcγRIIb [3]): 0.13 µM
- Kd (FcγRIIIa type V): 66 µM
- KD(IIb) of the parent polypeptide/KD(IIb) of altered polypeptide (FcγRIIb [4]): 24.5 fold

B3: IL6R-BP186/IL6R-L (antibody, human IgG1)
heavy: QVQLQESGPGLVKPSETLSLTCAVSGHSISHDHAWSWVRQPPGEGLEWIGFISYSGITNYNPSLQGRVTISRDNSKNTLYLQMNSLRAEDTAVYYCARSLARTTAMDYWGEGTLVTVSSASTKGPSVFPLAPSSKSTSGGTAALGCLVKDYFPEPVTVSWNSGALTSGVHTFPAVLQSSGLYSLSSVVTVPSSSLGTQTYICNVNHKPSNTKVDKKVEPKSCDKTHTCPPCPAPDYLGDDSVFLFPPKPKDTLMISRTPEVTCVVVDVSHEDGEVKFNWYVDGVEVHNAKTKPREEQDNSTYRVVSVLTVLHQDWLNGKEYKCKVSNAALPKPIEKTISKAKGQPREPQVYTLPPSRDELTKNQVSLTCLVKGFYPSDIAVEWESNGQPENNYKTTPPVLDSDGSFFLYSKLTVDKSRWQQGNVFSCSVMHEALHNHYTQESLSLSP
light: DIQMTQSPSSLSASVGDRVTITCRASQDISSYLNWYQQKPGKAPKLLIYYTSRLHSGVPSRFSGSGSGTDFTFTISSLQPEDIATYYCQQGNTLPYTFGQGTKVEIK
notes: as for B1
- KD(IIaR)/KD(IIb) (FcγRIIb [1]): 15.8
- KD(IIaH)/KD(IIb) (FcγRIIb [2]): 152
- Kd (FcγRIa): 0.045 µM
- Kd (FcγRIIa type R): 0.96 µM
- Kd (FcγRIIa type H): 9.3 µM
- Kd (FcγRIIb [3]): 0.061 µM
- Kd (FcγRIIIa type V): 49 µM
- KD(IIb) of the parent polypeptide/KD(IIb) of altered polypeptide (FcγRIIb [4]): 50.7 fold

B4: IL6R-BP187/IL6R-L (antibody, human IgG1)
heavy: QVQLQESGPGLVKPSETLSLTCAVSGHSISHDHAWSWVRQPPGEGLEWIGFISYSGITNYNPSLQGRVTISRDNSKNTLYLQMNSLRAEDTAVYYCARSLARTTAMDYWGEGTLVTVSSASTKGPSVFPLAPSSKSTSGGTAALGCLVKDYFPEPVTVSWNSGALTSGVHTFPAVLQSSGLYSLSSVVTVPSSSLGTQTYICNVNHKPSNTKVDKKVEPKSCDKTHTCPPCPAPEYLGGDSVFLFPPKPKDTLMISRTPEVTCVVVDVSHEDGEVKFNWYVDGVEVHNAKTKPREEQYNSTYRVVSVLTVLHQDWLNGKEYKCKVSNAALPKPIEKTISKAKGQPREPQVYTLPPSRDELTKNQVSLTCLVKGFYPSDIAVEWESNGQPENNYKTTPPVLDSDGSFFLYSKLTVDKSRWQQGNVFSCSVMHEALHNHYTQESLSLSP
light: DIQMTQSPSSLSASVGDRVTITCRASQDISSYLNWYQQKPGKAPKLLIYYTSRLHSGVPSRFSGSGSGTDFTFTISSLQPEDIATYYCQQGNTLPYTFGQGTKVEIK
notes: as for B1
- KD(IIaR)/KD(IIb) (FcγRIIb [1]): 9.7
- KD(IIaH)/KD(IIb) (FcγRIIb [2]): 62.3
- Kd (FcγRIa): 0.025 µM
- Kd (FcγRIIa type R): 2.8 µM
- Kd (FcγRIIa type H): 18 µM
- Kd (FcγRIIb [3]): 0.29 µM
- Kd (FcγRIIIa type V): 56 µM
- KD(IIb) of the parent polypeptide/KD(IIb) of altered polypeptide (FcγRIIb [4]): 10.7 fold

B5: IL6R-BP188/IL6R-L (antibody, human IgG1)
heavy: QVQLQESGPGLVKPSETLSLTCAVSGHSISHDHAWSWVRQPPGEGLEWIGFISYSGITNYNPSLQGRVTISRDNSKNTLYLQMNSLRAEDTAVYYCARSLARTTAMDYWGEGTLVTVSSASTKGPSVFPLAPSSKSTSGGTAALGCLVKDYFPEPVTVSWNSGALTSGVHTFPAVLQSSGLYSLSSVVTVPSSSLGTQTYICNVNHKPSNTKVDKKVEPKSCDKTHTCPPCPAPDLLGDDSVFLFPPKPKDTLMISRTPEVTCVVVDVSDEDGEVKFNWYVDGVEVHNAKTKPREEQYNSTYRVVSVLTVLHQDWLNGKEYKCKVSNKALPKPIEKTISKAKGQPREPQVYTLPPSRDELTKNQVSLTCLVKGFYPSDIAVEWESNGQPENNYKTTPPVLDSDGSFFLYSKLTVDKSRWQQGNVFSCSVMHEALHNHYTQESLSLSP
light: DIQMTQSPSSLSASVGDRVTITCRASQDISSYLNWYQQKPGKAPKLLIYYTSRLHSGVPSRFSGSGSGTDFTFTISSLQPEDIATYYCQQGNTLPYTFGQGTKVEIK
notes: as for B1
- KD(IIaR)/KD(IIb) (FcγRIIb [1]): 21.9
- KD(IIaH)/KD(IIb) (FcγRIIb [2]): 350
- Kd (FcγRIa): 0.021 µM
- Kd (FcγRIIa type R): 1 µM
- Kd (FcγRIIa type H): 16 µM
- Kd (FcγRIIb [3]): 0.046 µM
- Kd (FcγRIIIa type V): 58 µM
- KD(IIb) of the parent polypeptide/KD(IIb) of altered polypeptide (FcγRIIb [4]): 67.6 fold

B6: IL6R-BP189/IL6R-L (antibody, human IgG1)
heavy: QVQLQESGPGLVKPSETLSLTCAVSGHSISHDHAWSWVRQPPGEGLEWIGFISYSGITNYNPSLQGRVTISRDNSKNTLYLQMNSLRAEDTAVYYCARSLARTTAMDYWGEGTLVTVSSASTKGPSVFPLAPSSKSTSGGTAALGCLVKDYFPEPVTVSWNSGALTSGVHTFPAVLQSSGLYSLSSVVTVPSSSLGTQTYICNVNHKPSNTKVDKKVEPKSCDKTHTCPPCPAPELLGDDSVFLFPPKPKDTLMISRTPEVTCVVVDVSDEDGEVKFNWYVDGVEVHNAKTKPREEQYNSTYRVVSVLTVLHQDWLNGKEYKCKVSNAALPKPIEKTISKAKGQPREPQVYTLPPSRDELTKNQVSLTCLVKGFYPSDIAVEWESNGQPENNYKTTPPVLDSDGSFFLYSKLTVDKSRWQQGNVFSCSVMHEALHNHYTQESLSLSP
light: DIQMTQSPSSLSASVGDRVTITCRASQDISSYLNWYQQKPGKAPKLLIYYTSRLHSGVPSRFSGSGSGTDFTFTISSLQPEDIATYYCQQGNTLPYTFGQGTKVEIK
notes: as for B1
- KD(IIaR)/KD(IIb) (FcγRIIb [1]): 18.5
- KD(IIaH)/KD(IIb) (FcγRIIb [2]): 284
- Kd (FcγRIa): 0.042 µM
- Kd (FcγRIIa type R): 1.4 µM
- Kd (FcγRIIa type H): 21 µM
- Kd (FcγRIIb [3]): 0.074 µM
- Kd (FcγRIIIa type V): 49 µM
- KD(IIb) of the parent polypeptide/KD(IIb) of altered polypeptide (FcγRIIb [4]): 41.8 fold

B7: IL6R-BP190/IL6R-L (antibody, human IgG1)
heavy: QVQLQESGPGLVKPSETLSLTCAVSGHSISHDHAWSWVRQPPGEGLEWIGFISYSGITNYNPSLQGRVTISRDNSKNTLYLQMNSLRAEDTAVYYCARSLARTTAMDYWGEGTLVTVSSASTKGPSVFPLAPSSKSTSGGTAALGCLVKDYFPEPVTVSWNSGALTSGVHTFPAVLQSSGLYSLSSVVTVPSSSLGTQTYICNVNHKPSNTKVDKKVEPKSCDKTHTCPPCPAPELLGDDSVFLFPPKPKDTLMISRTPEVTCVVVDVSDEDGEVKFNWYVDGVEVHNAKTKPREEQYNSTYRVVSVLTVLHQDWLNGKEYKCKVSNKALPKPIEKTISKAKGQPREPQVYTLPPSRDELTKNQVSLTCLVKGFYPSDIAVEWESNGQPENNYKTTPPVLDSDGSFFLYSKLTVDKSRWQQGNVFSCSVMHEALHNHYTQESLSLSP
light: DIQMTQSPSSLSASVGDRVTITCRASQDISSYLNWYQQKPGKAPKLLIYYTSRLHSGVPSRFSGSGSGTDFTFTISSLQPEDIATYYCQQGNTLPYTFGQGTKVEIK
notes: as for B1
- KD(IIaR)/KD(IIb) (FcγRIIb [1]): 12.3
- KD(IIaH)/KD(IIb) (FcγRIIb [2]): 293
- Kd (FcγRIa): 0.063 µM
- Kd (FcγRIIa type R): 1.1 µM
- Kd (FcγRIIa type H): 17 µM
- Kd (FcγRIIb [3]): 0.058 µM
- Kd (FcγRIIIa type V): 45 µM
- KD(IIb) of the parent polypeptide/KD(IIb) of altered polypeptide (FcγRIIb [4]): 53.2 fold
